# Source: US20210381002A1 (CORNELL UNIVERSITY, published 2021)
# B1: human catalase monomer with a 20 amino acid deletion from the wrapping loop domain (hCatWL^-) (enzyme)
# chain: ADSRDPASDQMQHWKEQRAAQKADVLTTGAGNPVGDKLNVITVGPRGPLLVQDVVFTDEMAHFDRERIPERVVHAKGAGAFGYFEVTHDITKYSKAKVFEHIGKKTPIAVRFSTVAGESGSADTVRDPRGFAVKFYTEDGNWDLVGNNTPIFFIRDPILFPSFIHSQKRNPQTHLKDPDMVWDFWSLRPESLHQVSFLFSDRGIPDGHRHMNGYGSHTFKLVNANGEAVYCKFHYKTDQGIKNLSVEDAARLSQEDPDYGIRDLFNAIATGKYPSWTFYIQVMTFNQAETFPFNPFDLTKVWPHKDYPLIPVGKLVLNRNPVNYFAEVEQIAFDPSNMPPGIEASPDKMLQGRLFAYPDTHRHRLGPNYLHIPVNCPYRAPNYYPNSFGAPEQQPSALEHSIQYSGEVRRFNTANDDNVTQVRAFYVNVLNEEQRKRLCENIAGHLKDAQIFIQKKAVKNFTEVHPDYGSHIQALLDKYNAEKPKNAIHTFVQSGSHLAAREKANLYPYDVPDYA
# notes: also called hCatWD^-
# B2: modified human superoxide dismutase 3 (hSOD3hd^-): residues 50-59 replaced with a copy of 74-80, and heparin-binding domain residues 212-240 deleted (enzyme)
# chain: WTGEDSAEPNSDSAEWIRDMYAKVTEIWQEVATLDAAQHAACQVQPSATLDAAQPRVTGVVLFRQLAPRAKLDAFFALEGFPTEPNSSSRAIHVHQFGDLSQGCESTGPHYNPLAVPHPQHPGDFGNFAVRDGSLWRYRAGLAASLAGPHSIVGRAVVVHAGEDDLGRGGNQASVENGNAGRRLACCVVG
# notes: also called expression product of LEX 5b; not shown: Hemagglutinin (HA) tag used for detection with anti-HA
# Tests used:
# [1] = molecular target: the molecule itself; experiment: Bis-Tris gel of 293T supernatant (self-association, tetramer formation)
# Method: FIG. 14. Assessment of supernatants of catalase constructs for monomeric and multimeric catalase separation. Samples were assessed on Bis-Tris gel, blotted and probed with anti-catalase antibody (ABCAM: ab88067); predicted band sizes, 60 kDa for monomer and 240 kDa for tetramer, aAll 3 constructs secreted only the monomeric construct.
# Three modifications of the human catalase sequence were assessed: hCatNT⁻, hCatWL⁻ and hCatNT⁻WL⁻. […] However, of the 3 constructs, only the wrapping loop domain deletion (hCatWD⁻) retained catalase activity (FIG. 5B). […] Intravenous administration to mice led to detection of hCatWD⁻ DNA in the liver and lung (typical for AAVrh.10 vectors) (Chiuchiolo et al., 2013), and importantly, easily detectable human catalase activity in serum, e.g., LEX 5a generates a secreted, functional catalase monomer (FIG. 7A-C).
# [2] = molecular target: the molecule itself; experiment: Sephacryl size exclusion column fractions, anti-HA Western (self-association, tetramer formation)
# Method: FIGS. 6A-B. Modified SOD3 construct. A) Secretion of the modified SOD3 constructs. Western (anti-HA tag) of supernatant of 293T cells transfected with: lane 1—mock; lane 2—unmodified HA tagged SOD3; lane 3—SOD3hd⁻. Only SOD3hd⁻ is in the supernatant. […] Approximate MW are calculated from column specifications.
# Two modifications were made in a single SOD3 variant (hSOD3hd⁻), including a deletion of residues 50-59 replaced with an in frame copy of the residue segment from 74-80, and a deletion of residues 212-240, the heparin-binding domain. […] Intravenous administration to Balb/c mice led to vector DNA in liver and lung (liver 50-fold higher) and SOD activity in serum (FIG. 7D-F). LEX 5c, LEX 5d. Based on the in vitro and in vivo functional data of LEX 5a and LEX 5b, LEX 5c and LEX 5d were generated to express both catalase and SOD3 modified monomers. Based on expressing 2 genes in 1 AAV construct (De et al., 2008; Wang et al., 2010; Watanabe et al., 2010; Mao et al., 2011; Rosenberg et al., 2012; Hicks et al., 2012; Xie et al., 2014; Hicks et al., 2015; Pagovich et al., 2016; Liu et al., 2016), both […] use a single promoter, with the 2 modified cDNA separated by a furin 2A cleavage site which directs cleavage of the resulting precursor protein to generate the 2 function proteins. […]
Protein,binding result [1],binding result [2]
B1,no binding,
B2,,no binding
